According to PMC8184657:

Molecular target: insulin (bovine insulin) (bovine)
Assay: ITC

Work on IS1 (tetrapeptide VYYR) yielded a Ka of 0.00346 M⁻¹ and a dH of -18.7 kcal/mol.
